According to US20260242478A1 (published 2026):
Where no end group is shown, it is not given here.

Tests used:
[1] = biological target: T1, Anti-PSMA Fab (SEQ ID NOs: 19, 20); assay: phage binding ELISA; PSMA Fab on plate pre-incubated with PSMA antigen as competitor, anti-M13 HRP detection;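 also: crude clonal phage supernatants added without washing to wells preincubated with PSMA in blocking buffer, compared with wells receiving blocking buffer only, then bound phage detected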
T1 construct: Biotinylated PSMA Fab captured on neutravidin coated plates in the phage ELISA; also called 006 PSMA Fab
Method: (§1) Clonal phage were harvested as crude supernatants and screened via standard ELISAs. […] Prior to the addition of clonal phage. wells were incubated with blocking buffer and PSMA antigen or blocking buffer alone. Without washing or aspirating, clonal phage supernatants were then added to the wells and incubated for a short time. Wells were then washed followed by detection of bound phage using a horse radish conjugated anti-M13 antibody.

[2] = biological target: T1, Anti-PSMA Fab (SEQ ID NOs: 19, 20); assay: phage binding ELISA; biotinylated PSMA Fab on neutravidin plate, clonal phage supernatant, anti-M13 HRP detection;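 also: wells were preincubated with blocking buffer either containing PSMA antigen or without it before crude phage supernatant was added, briefly incubated, then washed prior to detection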
Method: as §1

[3] = biological target: T2, Anti-PSMA Fab (SEQ ID NOs: 19, 20); assay: phage ELISA; biotinylated PSMA Fab on neutravidin plate, clonal phage supernatant, anti-M13 HRP detection;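 also: wells preincubated with PSMA antigen in blocking buffer or with blocking buffer only before clonal phage were added for a short incubation, then bound phage detected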
T2 construct: In the phage ELISA the Fab was biotinylated and captured on neutravidin coated plates; also called 006 PSMA Fab
Method: as §1

[4] = biological target: T2, Anti-PSMA Fab (SEQ ID NOs: 19, 20); assay: phage ELISA; PSMA Fab on plate pre-incubated with PSMA antigen as competitor, anti-M13 HRP detection;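 also: crude clonal phage supernatants added to Fab-coated wells still holding PSMA antigen in blocking buffer, with bound phage as read-out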
Method: as §1

[5] = biological target: T3, Anti-PSMA Fab (SEQ ID NOs: 19, 20); assay: phage binding ELISA on captured anti-PSMA Fab; PSMA antigen as competitor
T3 construct: Biotinylated and captured on neutravidin coated plates in the phage ELISA; also called 006 PSMA Fab
Method: as §1

[6] = biological target: T3, Anti-PSMA Fab (SEQ ID NOs: 19, 20); assay: phage binding ELISA; biotinylated anti-PSMA Fab captured on neutravidin, bound phage detected with anti-M13 HRP
Method: as §1

B1: Phage-1842 (peptide)
peptide: VERWCVPEWMCHWI
notes: tested as crude clonal phage supernatant
Question: What does the source list for B1?
Answer: Anti-PSMA Fab signal in the presence of PSMA [1]: 0.0977; Anti-PSMA Fab (SEQ ID NOs: 19, 20) signal [2]: 2.23

B2: Phage-1846 (peptide)
peptide: PSMRCIPEWMCAML
modifications: cysteine pairing not given here; also: displayed on phage as pIII fusion, pIII and linker sequences not given here
notes: Clone of the Peptide-180 library
Question: How did the “Phage binding ELISA, Anti-PSMA Fab signal” value [3] turn out when B2 was run?
Answer: The value was 2.2.

Question: What about the “Phage binding ELISA, Anti-PSMA Fab signal in the presence of PSMA” value (shortened to “Phage binding ELISA … of PSMA”) [4] of the same binder?
Answer: The value was 0.0824.

Question: With VEKLCTPIWMCLGF [Phage-1785 (clonal phage displaying the peptide of SEQ ID NO: 2081)] as the binder, how does the “Anti-PSMA Fab signal in the presence of PSMA” value [5] read?
Answer: Its value is 0.0705.

Question: What about the “Anti-PSMA Fab (SEQ ID NOs: 19, 20) signal” value [6] of the same binder?
Answer: Its value is 1.84.

B3: Phage-1848 (peptide)
peptide: AIPWCIPAWMCQVF
modifications: cysteine pairing not given here; also: displayed on phage as pIII fusion, pIII and linker sequences not given here
notes: as for B2
Question: Which results are given for B3?
Answer: Phage binding ELISA, Anti-PSMA Fab signal [3]: 2.18; Phage binding ELISA, Anti-PSMA Fab signal in the presence of PSMA [4]: 0.234

B4: Phage-1843 (peptide)
peptide: LDRWCIPEWMCEMF
notes: as for B1
Question: For B4, which “Anti-PSMA Fab signal in the presence of PSMA” value [1] is on record?
Answer: Its value is 0.0928.

Question: What about the “Anti-PSMA Fab (SEQ ID NOs: 19, 20) signal” value [2] of the same binder?
Answer: The value was 2.22.

B5: Phage-1845 (peptide)
peptide: FTNWCTPEWMCSGF
notes: as for B1
Question: For B5, which “Anti-PSMA Fab signal in the presence of PSMA” value [1] is on record?
Answer: The value was 0.0826.

Question: What about the “Anti-PSMA Fab (SEQ ID NOs: 19, 20) signal” value [2] of the same binder?
Answer: Its value is 2.21.

B6: Phage-1850 (peptide)
peptide: PTKLCIPEWMCYVR
modifications: cysteine pairing not given here; also: displayed on phage as pIII fusion, pIII and linker sequences not given here
notes: as for B2
Question: Which “Phage binding ELISA, Anti-PSMA Fab signal” value [3] does the source give for B6 here?
Answer: The value was 2.17.

Question: What about the “Phage binding ELISA … of PSMA” value [4] of the same binder?
Answer: The value was 0.0692.

Question: For DVKLCKPEWMCYGL [Phage-1786 (clonal phage displaying the peptide of SEQ ID NO: 2082)], which “Anti-PSMA Fab signal in the presence of PSMA” value [5] is on record?
Answer: The value was 0.0637.

Question: What about the “Anti-PSMA Fab (SEQ ID NOs: 19, 20) signal” value [6] of the same binder?
Answer: The value was 1.75.

B7: Phage-1834 (peptide)
peptide: VERMCMPAWMCDMF
notes: as for B1
Question: B7 was tested. Which “Anti-PSMA Fab signal in the presence of PSMA” value [1] did it give?
Answer: Its value is 0.0862.

Question: What about the “Anti-PSMA Fab (SEQ ID NOs: 19, 20) signal” value [2] of the same binder?
Answer: The value was 2.28.

B8: Phage-1847 (peptide)
peptide: SMHWCTPKWMCEGL
modifications: cysteine pairing not given here; also: displayed on phage as pIII fusion, pIII and linker sequences not given here
notes: as for B2
Question: What does the source list for B8?
Answer: Phage binding ELISA, Anti-PSMA Fab signal [3]: 2.2; Phage binding ELISA, Anti-PSMA Fab signal in the presence of PSMA [4]: 0.147

B9: Phage-1849 (peptide)
peptide: FSHWCIPEWMCSTS
modifications: cysteine pairing not given here; also: displayed on phage as pIII fusion, pIII and linker sequences not given here
notes: as for B2
Question: Which results are given for B9?
Answer: Phage binding ELISA, Anti-PSMA Fab signal [3]: 2.18; Phage binding ELISA, Anti-PSMA Fab signal in the presence of PSMA [4]: 0.158

B10: Phage-1841 (peptide)
peptide: TDKWCIPPWMCMLQ
notes: as for B1
Question: Which “Anti-PSMA Fab signal in the presence of PSMA” value [1] does the source give for B10 here?
Answer: The value was 0.0865.

Question: What about the “Anti-PSMA Fab (SEQ ID NOs: 19, 20) signal” value [2] of the same binder?
Answer: The value was 2.23.

Question: With LEKLCKPAWMCVNF [Phage-1788 (clonal phage displaying the peptide of SEQ ID NO: 2084)] as the binder, how does the “Anti-PSMA Fab signal in the presence of PSMA” value [5] read?
Answer: The value was 0.107.

Question: What about the “Anti-PSMA Fab (SEQ ID NOs: 19, 20) signal” value [6] of the same binder?
Answer: Its value is 1.66.

B11: Phage-1836 (peptide)
peptide: WLPMCRPAWMCAGL
modifications: cysteine pairing not given here; also: displayed on phage as pIII fusion, pIII sequence and linker not given here
notes: as for B1
Question: Which results are given for B11?
Answer: Anti-PSMA Fab signal in the presence of PSMA [1]: 0.0653; Anti-PSMA Fab (SEQ ID NOs: 19, 20) signal [2]: 2.27

Question: For DLRLCKPAWMCDFI [Phage-1781 (clonal phage displaying the peptide of SEQ ID NO: 2077)], which “Anti-PSMA Fab signal in the presence of PSMA” value [5] is on record?
Answer: Its value is 0.0601.

Question: What about the “Anti-PSMA Fab (SEQ ID NOs: 19, 20) signal” value [6] of the same binder?
Answer: The value was 1.95.

B12: Phage-1837 (peptide)
peptide: GLNWCTPTWMCQGF
notes: as for B1
Question: How did the “Anti-PSMA Fab signal in the presence of PSMA” value [1] turn out when B12 was run?
Answer: Its value is 0.0833.

Question: And the “Anti-PSMA Fab (SEQ ID NOs: 19, 20) signal” value [2]?
Answer: The value was 2.26.

B13: Phage-1840 (peptide)
peptide: MVKWCIPSWMCDSV
notes: as for B1
Question: What does the source list for B13?
Answer: Anti-PSMA Fab signal in the presence of PSMA [1]: 0.109; Anti-PSMA Fab (SEQ ID NOs: 19, 20) signal [2]: 2.23

B14: Phage-1851 (peptide)
peptide: SEMLCKPSWMCLGF
modifications: cysteine pairing not given here; also: displayed on phage as pIII fusion, pIII and linker sequences not given here
notes: as for B2
Question: B14 was tested. Which “Phage binding ELISA, Anti-PSMA Fab signal” value [3] did it give?
Answer: The value was 2.17.

Question: And the “Phage binding ELISA … of PSMA” value [4]?
Answer: The value was 0.0726.

B15: Phage-1839 (peptide)
peptide: YDILCRPSWMCSWV
notes: as for B1
Question: Which “Anti-PSMA Fab signal in the presence of PSMA” value [1] does the source give for B15 here?
Answer: Its value is 0.145.

Question: What about the “Anti-PSMA Fab (SEQ ID NOs: 19, 20) signal” value [2] of the same binder?
Answer: Its value is 2.24.

B16: Phage-1844 (peptide)
peptide: TDKLCIPEWMCINW
notes: as for B1
Question: How did the “Anti-PSMA Fab signal in the presence of PSMA” value [1] turn out when B16 was run?
Answer: Its value is 0.0602.

Question: And the “Anti-PSMA Fab (SEQ ID NOs: 19, 20) signal” value [2]?
Answer: The value was 2.22.

Question: Which “Anti-PSMA Fab signal in the presence of PSMA” value [5] does the source give for LDKWCVPKWMCSGL [Phage-1782 (clonal phage displaying the peptide of SEQ ID NO: 2078)] here?
Answer: Its value is 0.0742.

Question: What about the “Anti-PSMA Fab (SEQ ID NOs: 19, 20) signal” value [6] of the same binder?
Answer: Its value is 1.92.

Question: LEKTCIPTWMCVGF [Phage-1784 (clonal phage displaying the peptide of SEQ ID NO: 2080)] was tested. Which “Anti-PSMA Fab signal in the presence of PSMA” value [5] did it give?
Answer: Its value is 0.0732.

Question: And the “Anti-PSMA Fab (SEQ ID NOs: 19, 20) signal” value [6]?
Answer: The value was 1.88.

B17: Phage-1835 (peptide)
peptide: YEKWCVPDWMCSMI
notes: as for B1
Question: What does the source list for B17?
Answer: Anti-PSMA Fab signal in the presence of PSMA [1]: 0.0678; Anti-PSMA Fab (SEQ ID NOs: 19, 20) signal [2]: 2.28

B18: Phage-1831 (peptide)
peptide: IIPWCKPAWMCSGM
notes: as for B1
Question: Which results are given for B18?
Answer: Anti-PSMA Fab signal in the presence of PSMA [1]: 0.275; Anti-PSMA Fab (SEQ ID NOs: 19, 20) signal [2]: 2.29

B19: Phage-1838 (peptide)
peptide: VMKWCIPVWMCGGM
notes: as for B1
Question: Which results are given for B19?
Answer: Anti-PSMA Fab signal in the presence of PSMA [1]: 0.291; Anti-PSMA Fab (SEQ ID NOs: 19, 20) signal [2]: 2.26

Question: For ISKWCIPEWMCTSP [Phage-1787 (clonal phage displaying the peptide of SEQ ID NO: 2083)], which “Anti-PSMA Fab signal in the presence of PSMA” value [5] is on record?
Answer: Its value is 0.107.

Question: What about the “Anti-PSMA Fab (SEQ ID NOs: 19, 20) signal” value [6] of the same binder?
Answer: The value was 1.73.

B20: Phage-1832 (peptide)
peptide: MGKWCIPEWMCNVS
notes: as for B1
Question: B20 was tested. Which “Anti-PSMA Fab signal in the presence of PSMA” value [1] did it give?
Answer: The value was 0.0652.

Question: And the “Anti-PSMA Fab (SEQ ID NOs: 19, 20) signal” value [2]?
Answer: Its value is 2.29.

Question: Which “Anti-PSMA Fab signal in the presence of PSMA” value [5] does the source give for IDIRCTPIWMCVGF [Phage-1789 (clonal phage displaying the peptide of SEQ ID NO: 2085)] here?
Answer: The value was 0.0801.

Question: What about the “Anti-PSMA Fab (SEQ ID NOs: 19, 20) signal” value [6] of the same binder?
Answer: The value was 1.57.

B21: Phage-1833 (peptide)
peptide: DIPWCIPPWMCAGS
modifications: cysteine pairing not given here; also: displayed on phage as pIII fusion, pIII sequence and linker not given here
notes: as for B1
Question: What does the source list for B21?
Answer: Anti-PSMA Fab signal in the presence of PSMA [1]: 0.112; Anti-PSMA Fab (SEQ ID NOs: 19, 20) signal [2]: 2.28

Question: Which results are given for GEKWCIPDWMCSGF [Phage-1783 (clonal phage displaying the peptide of SEQ ID NO: 2079)]?
Answer: Anti-PSMA Fab signal in the presence of PSMA [5]: 0.148; Anti-PSMA Fab (SEQ ID NOs: 19, 20) signal [6]: 1.91
